# Substitutions are numbered along the chain they refer to. Names may count otherwise.
# B1: P148L: PYR1 mutant (protein, UniProt O49686 1-191, looked up, variant P148L)
# Abscisic acid receptor PYR1: MPSELTPEERSELKNSIAEFHTYQLDPGSCSSLHAQRIHAPPELVWSIVRRFDKPQTYKHFIKSCSVEQNFEMRVGCTRDVIVISGLPANTSTERLDILDDERRVTGFSIIGGEHRLTNYKSVTTVHRFEKENRIWTVVLESYVVDMLEGNSEDDTRMFADTVVKLNLQKLATVAEAMARNSGDGSGSQVT
# B2: P148D: PYR1 mutant (protein, UniProt O49686 1-191, looked up, variant P148D)
# Abscisic acid receptor PYR1: B1 Abscisic acid receptor PYR1 with L148D
# B3: N151V: PYR1 mutant (protein, UniProt O49686 1-191, looked up, variant N151V)
# Abscisic acid receptor PYR1: B1 Abscisic acid receptor PYR1 with L148P, N151V
# B4: N151F: PYR1 mutant (protein, UniProt O49686 1-191, looked up, variant N151F)
# Abscisic acid receptor PYR1: B1 Abscisic acid receptor PYR1 with L148P, N151F
# B5: N151W: PYR1 mutant (protein, UniProt O49686 1-191, looked up, variant N151W)
# Abscisic acid receptor PYR1: B1 Abscisic acid receptor PYR1 with L148P, N151W
# B6: P148H: PYR1 mutant (protein, UniProt O49686 1-191, looked up, variant P148H)
# Abscisic acid receptor PYR1: B1 Abscisic acid receptor PYR1 with L148H
# B7: N151L: PYR1 mutant (protein, UniProt O49686 1-191, looked up, variant N151L)
# Abscisic acid receptor PYR1: B1 Abscisic acid receptor PYR1 with L148P, N151L
# B8: P148F: PYR1 mutant (protein, UniProt O49686 1-191, looked up, variant P148F)
# Abscisic acid receptor PYR1: B1 Abscisic acid receptor PYR1 with L148F
# B9: N151Y: PYR1 mutant (protein, UniProt O49686 1-191, looked up, variant N151Y)
# Abscisic acid receptor PYR1: B1 Abscisic acid receptor PYR1 with L148P, N151Y
# B10: N151D: PYR1 mutant (protein, UniProt O49686 1-191, looked up, variant N151D)
# Abscisic acid receptor PYR1: B1 Abscisic acid receptor PYR1 with L148P, N151D
# B11: N151P: PYR1 mutant (protein, UniProt O49686 1-191, looked up, variant N151P)
# Abscisic acid receptor PYR1: B1 Abscisic acid receptor PYR1 with L148P, N151P
# B12: N151M: PYR1 mutant (protein, UniProt O49686 1-191, looked up, variant N151M)
# Abscisic acid receptor PYR1: B1 Abscisic acid receptor PYR1 with L148P, N151M
# B13: G150I: PYR1 mutant (protein, UniProt O49686 1-191, looked up, variant G150I)
# Abscisic acid receptor PYR1: B1 Abscisic acid receptor PYR1 with L148P, G150I
# B14: P148I: PYR1 mutant (protein, UniProt O49686 1-191, looked up, variant P148I)
# Abscisic acid receptor PYR1: B1 Abscisic acid receptor PYR1 with L148I
# B15: P148W: PYR1 mutant (protein, UniProt O49686 1-191, looked up, variant P148W)
# Abscisic acid receptor PYR1: B1 Abscisic acid receptor PYR1 with L148W
# B16: P148R: PYR1 mutant (protein, UniProt O49686 1-191, looked up, variant P148R)
# Abscisic acid receptor PYR1: B1 Abscisic acid receptor PYR1 with L148R
# B17: G150W: PYR1 mutant (protein, UniProt O49686 1-191, looked up, variant G150W)
# Abscisic acid receptor PYR1: B1 Abscisic acid receptor PYR1 with L148P, G150W
# B18: N151C: PYR1 mutant (protein, UniProt O49686 1-191, looked up, variant N151C)
# Abscisic acid receptor PYR1: B1 Abscisic acid receptor PYR1 with L148P, N151C
# B19: P148C: PYR1 mutant (protein, UniProt O49686 1-191, looked up, variant P148C)
# Abscisic acid receptor PYR1: B1 Abscisic acid receptor PYR1 with L148C
# B20: N151Q: PYR1 mutant (protein, UniProt O49686 1-191, looked up, variant N151Q)
# Abscisic acid receptor PYR1: B1 Abscisic acid receptor PYR1 with L148P, N151Q
# B21: P148Y: PYR1 mutant (protein, UniProt O49686 1-191, looked up, variant P148Y)
# Abscisic acid receptor PYR1: B1 Abscisic acid receptor PYR1 with L148Y
# B22: P148E: PYR1 mutant (protein, UniProt O49686 1-191, looked up, variant P148E)
# Abscisic acid receptor PYR1: B1 Abscisic acid receptor PYR1 with L148E
# B23: P148Q: PYR1 mutant (protein, UniProt O49686 1-191, looked up, variant P148Q)
# Abscisic acid receptor PYR1: B1 Abscisic acid receptor PYR1 with L148Q
# B24: G150V: PYR1 mutant (protein, UniProt O49686 1-191, looked up, variant G150V)
# Abscisic acid receptor PYR1: B1 Abscisic acid receptor PYR1 with L148P, G150V
# B25: P148K: PYR1 mutant (protein, UniProt O49686 1-191, looked up, variant P148K)
# Abscisic acid receptor PYR1: B1 Abscisic acid receptor PYR1 with L148K
# B26: N151R: PYR1 mutant (protein, UniProt O49686 1-191, looked up, variant N151R)
# Abscisic acid receptor PYR1: B1 Abscisic acid receptor PYR1 with L148P, N151R
# B27: P148N: PYR1 mutant (protein, UniProt O49686 1-191, looked up, variant P148N)
# Abscisic acid receptor PYR1: B1 Abscisic acid receptor PYR1 with L148N
# B28: P148G: PYR1 mutant (protein, UniProt O49686 1-191, looked up, variant P148G)
# Abscisic acid receptor PYR1: B1 Abscisic acid receptor PYR1 with L148G
# B29: P148M: PYR1 mutant (protein, UniProt O49686 1-191, looked up, variant P148M)
# Abscisic acid receptor PYR1: B1 Abscisic acid receptor PYR1 with L148M
# B30: P148V: PYR1 mutant (protein, UniProt O49686 1-191, looked up, variant P148V)
# Abscisic acid receptor PYR1: B1 Abscisic acid receptor PYR1 with L148V
# B31: P148S: PYR1 mutant (protein, UniProt O49686 1-191, looked up, variant P148S)
# Abscisic acid receptor PYR1: B1 Abscisic acid receptor PYR1 with L148S
# B32: P148T: PYR1 mutant (protein, UniProt O49686 1-191, looked up, variant P148T)
# Abscisic acid receptor PYR1: B1 Abscisic acid receptor PYR1 with L148T
# B33: N151E: PYR1 mutant (protein, UniProt O49686 1-191, looked up, variant N151E)
# Abscisic acid receptor PYR1: B1 Abscisic acid receptor PYR1 with L148P, N151E
# Tested on: HAB1
# Test: Yeast two hybrid of pBD-PYR1 site saturation mutants with pACT-HAB1 on 10 μM ABA, β-galactosidase staining
# Assay type: cell-based, Arabidopsis
# Parameters: key: x: Mutations in PYR1 that disrupt ABA-induced binding to PYR1 to HAB1
# Settings: S. cerevisiae Y190, 10 μM ABA; dead = lack of visible staining in comparison to wild type control
# Procedure, shortened: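 Binding was read by β-galactosidase staining of chloroform-lysed colonies after 2 days at 30° C on SD (-Leu, -Trp) plates containing 10 μM (+)-ABA. Yeast strain Y190 carried the BD-PYR1 single-substitution mutants plus the AD-HAB1 fusion. Absence of staining versus the wild-type control defined "dead" mutants.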
row,Mutations in PYR1 that disrupt ABA-induced binding to PYR1 to HAB1,Molecule
1,x,B1
2,x,B2
3,x,B3
4,x,B4
5,x,B5
6,x,B6
7,x,B7
8,x,B8
9,x,B9
10,x,B10
11,x,B11
12,x,B12
13,x,B13
14,x,B14
15,x,B15
16,x,B16
17,x,B17

row,Mutations in PYR1 that disrupt ABA-induced binding to PYR1 to HAB1,Molecule
1,x,B18
2,x,B19
3,x,B20
4,x,B21
5,x,B22
6,x,B23
7,x,B24
8,x,B25
9,x,B26
10,x,B27
11,x,B28
12,x,B29
13,x,B30
14,x,B31
15,x,B32
16,x,B33
